In US20090082262:

What was measured:
[1] = tested on: T1, full size HCC-1 (HCC-1, residues 1-74)
T1 sequence: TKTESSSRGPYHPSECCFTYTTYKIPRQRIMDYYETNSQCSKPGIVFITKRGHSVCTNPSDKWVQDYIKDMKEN

PHC-1 (HCC-1[9-74]) = tested on: T2, PHC-1 (HCC-1[9-74])
T2 sequence: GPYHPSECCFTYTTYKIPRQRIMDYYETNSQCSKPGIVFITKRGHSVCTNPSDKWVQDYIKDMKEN

Substance	tryptic digestion, 1 h, enzyme/substrate-ratio (w/w) 1/100 [1]	proteolytic degradation, activity after 90 min at 37° C with 10 or 100 IU urokinase (PHC-1 (HCC-1[9-74]))	proteolytic cleavage; product analysed by RP-HPLC, CCR5 aequorin assay, mass spectrometry and Edman degradation [1]
trypsin	One cleavage product, the newly identified biologically active peptide PHC-1, comprising residues 9-74 of the HCC-1 precursor sequence, with the molecular mass of 7795 Da was obtained	–	–
urokinase	–	No change of activity was observed after an incubation of 90 min at 37 °C	identifying PHC-1 and full size HCC-1 as the major compounds in these fractions
